Reference: FireProtDB (doi:10.1073/pnas.0911904107)

Conditions: Escherichia coli (strain K12), pH 8, 25 °C, Urea, CD, whole UniProt chain shown
[1] = Sodium phosphate 50 mM, reversible: Yes
[2] = sodium phosphate buffer, transition: 2, reversible: yes

B1: Lipid A palmitoyltransferase PagP wild type, P37001 (protein)
chain: MNVSKYVAIFSFVFIQLISVGKVFANADEWMTTFRENIAQTWQQPEHYDLYIPAITWHARFAYDKEKTDRYNERPWGGGFGLSRWDEKGNWHGLYAMAFKDSWNKWEPIAGYGWESTWRPLADENFHLGLGFTAGVTARDNWNYIPLPVLLPLASVGYGPVTFQMTYIPGTYNNGNVYFAWMRFQF
[1]
  denaturant m value: 1.64 kcal/mol/M
  denaturant midpoint (higher = more stable): 8.77 M
  unfolding free energy: 14.4 kcal/mol
[2]
  denaturant midpoint (higher = more stable): 8.77 M
  unfolding free energy: 14.4 kcal/mol
